Reference: US20040141978A1 (PHARMACIA AND UPJOHN, published 2004)

What was measured:
[1] = target: Angiostatin + Binding Domain (UniProt P00747); assay: cell-based or functional assay
p53 + Binding Domain = assay: cell-based or functional assay
ABP-1 = target: T1, ABP-1 (human, UniProt Q4VCS5 410-1084); assay: fluorescence microscopy, FITC-labelled angiostatin (10 ug/ml) on live HeLa cells transfected with ABP-1
T1 construct: also called angiostatin receptor
T1 sequence: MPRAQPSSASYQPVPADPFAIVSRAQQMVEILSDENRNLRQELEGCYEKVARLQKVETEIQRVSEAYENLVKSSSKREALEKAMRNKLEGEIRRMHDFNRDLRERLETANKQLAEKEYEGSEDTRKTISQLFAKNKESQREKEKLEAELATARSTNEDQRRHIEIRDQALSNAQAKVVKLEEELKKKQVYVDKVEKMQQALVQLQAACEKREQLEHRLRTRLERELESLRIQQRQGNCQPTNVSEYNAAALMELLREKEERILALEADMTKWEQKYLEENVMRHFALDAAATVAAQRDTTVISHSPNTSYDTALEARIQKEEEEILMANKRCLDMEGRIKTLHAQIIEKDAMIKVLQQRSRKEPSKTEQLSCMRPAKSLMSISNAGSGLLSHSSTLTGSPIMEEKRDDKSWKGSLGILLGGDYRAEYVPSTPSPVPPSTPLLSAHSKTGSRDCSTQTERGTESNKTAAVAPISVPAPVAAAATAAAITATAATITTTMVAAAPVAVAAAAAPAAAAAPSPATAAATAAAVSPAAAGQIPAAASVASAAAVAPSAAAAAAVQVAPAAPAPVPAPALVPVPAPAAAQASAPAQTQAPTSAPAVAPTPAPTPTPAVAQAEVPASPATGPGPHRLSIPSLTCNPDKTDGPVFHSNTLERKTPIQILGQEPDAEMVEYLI

Chain of Angiostatin + Binding Domain (P00747 whole entry, the tested form may be a part): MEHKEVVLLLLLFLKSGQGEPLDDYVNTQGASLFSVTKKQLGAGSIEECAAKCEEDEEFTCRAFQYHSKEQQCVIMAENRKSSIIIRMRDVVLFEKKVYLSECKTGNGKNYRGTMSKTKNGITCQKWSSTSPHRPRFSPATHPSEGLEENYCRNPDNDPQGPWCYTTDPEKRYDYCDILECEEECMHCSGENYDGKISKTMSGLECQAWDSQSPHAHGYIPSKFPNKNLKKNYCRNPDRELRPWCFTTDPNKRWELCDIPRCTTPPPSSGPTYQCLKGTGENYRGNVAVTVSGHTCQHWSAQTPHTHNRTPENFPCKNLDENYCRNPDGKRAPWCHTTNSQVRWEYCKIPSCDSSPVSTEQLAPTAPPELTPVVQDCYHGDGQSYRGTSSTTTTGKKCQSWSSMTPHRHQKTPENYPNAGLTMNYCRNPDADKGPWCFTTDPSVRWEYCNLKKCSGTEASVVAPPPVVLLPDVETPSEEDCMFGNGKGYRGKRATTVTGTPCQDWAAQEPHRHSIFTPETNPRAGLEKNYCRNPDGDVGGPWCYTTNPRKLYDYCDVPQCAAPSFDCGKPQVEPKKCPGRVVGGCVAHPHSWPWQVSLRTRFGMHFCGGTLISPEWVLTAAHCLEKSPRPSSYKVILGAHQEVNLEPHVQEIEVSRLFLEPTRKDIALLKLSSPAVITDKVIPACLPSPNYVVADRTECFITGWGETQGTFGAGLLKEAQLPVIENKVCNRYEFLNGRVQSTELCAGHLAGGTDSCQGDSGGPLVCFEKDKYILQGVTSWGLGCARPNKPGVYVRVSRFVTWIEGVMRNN

Activation Domain alone (from UniProt P04386 768-881)
β-Gal Activity [1]: < 0.04 u

SV40LT - Activation Domain (from UniProt P03070 84-708)
β-Gal Activity (p53 + Binding Domain): 90 u

B1: human angiostatin (kringle domains 1-4 of plasminogen) (ligand, UniProt P00747 99-459, looked up)
chain: YLSECKTGNGKNYRGTMSKTKNGITCQKWSSTSPHRPRFSPATHPSEGLEENYCRNPDNDPQGPWCYTTDPEKRYDYCDILECEEECMHCSGENYDGKISKTMSGLECQAWDSQSPHAHGYIPSKFPNKNLKKNYCRNPDRELRPWCFTTDPNKRWELCDIPRCTTPPPSSGPTYQCLKGTGENYRGNVAVTVSGHTCQHWSAQTPHTHNRTPENFPCKNLDENYCRNPDGKRAPWCHTTNSQVRWEYCKIPSCDSSPVSTEQLAPTAPPELTPVVQDCYHGDGQSYRGTSSTTTTGKKCQSWSSMTPHRHQKTPENYPNAGLTMNYCRNPDADKGPWCFTTDPSVRWEYCNLKKCSGTEA
modifications: FITC-labelled in the cell binding assay of FIG. 9C
notes: domain: kringle domains 1-4; Used unlabelled in the pull-down and kinase assays, FITC-labelled on transfected HeLa cells; also called K1-K4; FITC-labelled angiostatin
binding result (ABP-1): binds
